# According to US8476051B2, “Thermostable alcohol dehydrogenase derived from Thermococcus guaymasensis” (priority 2008, dated 2013):
# Where “and” joins values, the source holds several entries; their conditions need not be identical. Equal entries are not always repeated. Where two headings read alike, the source gives them in different places.
# B1: TgADH: alcohol dehydrogenase purified from Thermococcus guaymasensis, SEQ ID NO:4, homotetramer, zinc-containing, NADP^+-dependent (protein, listed as Thermococcus guaymasensis)
# chain: SKMRGFAMVDFGKAEWIEKERPKPGPYDAIVKPIAVAPCTSDIHTVFEAAFPREMCEFPRILGHEAVGEVVEVGSHVKDFKPGDRVVVPAITPDWRTLDVQRGYHQHSGGMLAGWKFSNPLKEGGKDGVFAEYFHVNDADMNLAHLPDEIKPEVAVMATDMMTTGFHGAELADIPLGGTVAVIGIGPVGLMAVAGARLLGAGRIIAVGSRPVCVEAAKYYGATDIVNRREHPDIAGRILELTGGEGVDSVIIAGGNVDVMKTAVKIVKPGGTVANINYFGSGDYLPIPRIEWGQGMAHKTIKGGLCPGGRLRMERLLDLIKYGRVDPSRLITHKFKGFDKIPEALYLMKDKPKDLIKPVVIIEE
# modifications: homotetramer, zinc-containing
# B2: T. brockii: T brockii ADH available at Sigma Aldrich, essentially T ehtanolicus ADH (protein, UniProt P14941 1-352, looked up)
# NADP-dependent isopropanol …: MKGFAMLSIGKVGWIEKEKPAPGPFDAIVRPLAVAPCTSDIHTVFEGAIGERHNMILGHEAVGEVVEVGSEVKDFKPGDRVVVPAITPDWRTSEVQRGYHQHSGGMLAGWKFSNVKDGVFGEFFHVNDADMNLAHLPKEIPLEAAVMIPDMMTTGFHGAELADIELGATVAVLGIGPVGLMAVAGAKLRGAGRIIAVGSRPVCVDAAKYYGATDIVNYKDGPIESQIMNLTEGKGVDAAIIAGGNADIMATAVKIVKPGGTIANVNYFGEGEVLPVPRLEWGCGMAHKTIKGGLCPGGRLRMERLIDLVFYKRVDPSKLVTHVFRGFDNIEKAFMLMKDKPKDLIKPVVILA
# B3: recombinant TgADH: recombinant wild-type TgADH polypeptide (SEQ ID NO: 8) expressed in E. coli BL21-codon plus RIL with vector pET30a (protein)
# chain: MHHHHHHSSGLVPRGSGMKETAAAKFERQHMDSPDLGTDDDDKAMADIGSEFMSKMRGFAMVDFGKAEWIEKERPKPGPYDAIVKPIAVAPCTSDIHTVFEAAFPREMCEFPRILGHEAVGEVVEVGSHVKDFKPGDRVVVPAITPDWRTLDVQRGYHQHSGGMLAGWKFSNPLKEGGKDGVFAEYFHVNDADMNLAHLPDEIKPEVAVMATDMMTTGFHGAELADIPLGGTVAVIGIGPVGLMAVAGARLLGAGRIIAVGSRPVCVEAAKYYGATDIVNRREHPDIAGRILELTGGEGVDSVIIAGGNVDVMKTAVKIVKPGGTVANINYFGSGDYLPIPRIEWGQGMAHKTIKGGLCPGGRLRMERLLDLIKYGRVDPSRLITHKFKGFDKIPEALYLMKDKPKDLIKPVVIIEE
# modifications: Wild-type with vector coding region
# What was measured:
# T. guaymasensis ADH [1] = target: T1, T. guaymasensis ADH (Thermococcus guaymasensis, UniProt F8S123); assay: Kinetic parameters, alcohol oxidation with NADP+; format: biochemical; settings: co-substrate NADP^+ (0.4 mM)
# Experimental: (§1) The purified enzyme (0.25 μg) initiated the enzyme assay. […] The protein concentrations of all samples were determined using the Bradford method and bovine serum albumin served as the standard protein (Bradford 1976).
# (§2) Apparent values of Km and Vmax were calculated using the curve fittings of SigmaPlot (Systat Software Inc., San Jose, Calif., USA).
# T. guaymasensis ADH [2] = target: T1, T. guaymasensis ADH; assay: Kinetic parameters, ketone reduction with NADPH; format: biochemical
# Experimental: as §1, §2
# T. guaymasensis ADH [3] = target: T1, T. guaymasensis ADH; assay: Stereoselective conversion between acetoin and 2,3-butanediol (chiral GC); format: biochemical
# Experimental: All the reactions were carried out at 30° C. for 24 hours unless specified. After that, the reaction mixture (1 ml) was extracted with 1 ml ethyl acetate or dichloride methane with shaking on a Gyrotory water bath shaker model G76 (New Brunswick Scientific Co., INC., NJ, USA) at 350 rpm for 30 min (room temperature). The stereoselectivity of the purified enzyme was determined using the Shimadzu GC-14A gas chromatography equipped with a CP-Chirasil-Dex CB column (0.25 mm ID×25 m length, Varian Inc., Palo Alto, Calif., USA). The following GC operating conditions included the FID detector (250° C.) at a sensitivity range of 10 and helium as the carrier gas at a linear velocity of 40 cm s^−1. […] The reaction mixture after extraction (0.5 μl) was directly applied onto the injector (200° C.) for each assay. The peak areas were quantitated using specific external standards.
# [4] = ADH specific activity (spectrophotometric enzyme assay); format: biochemical; settings: 80° C.; for Specific activity: standard assay
# Experimental: as §1
# The reaction was initiated by adding enzymes.
# [5] = Experimental: The effect of pH on the enzyme activities was determined over a range of 5.5-11.4. The buffers (100 mM) used were phosphate (pH 5.5-8.0), EPPS (8.0-9.0), glycylglycine (9.0-9.7), and CAPS (9.7-11.4). The effect of the temperature on the enzyme activity was examined at temperatures from 30 to 95° C. […] Residual activity was assayed at various time intervals under the standard assay conditions. Substrate specificity was determined using primary and secondary alcohols (50 mM), diols and polyols (50 mM), or aldehydes and ketones (6 mM) under standard assay conditions.
# (§3) The effect of the temperature on the enzyme activity was examined at temperatures from 30 to 95° C. The activities were measured using standard assay conditions. Enzyme thermostability was evaluated by incubating the enzyme in sealed serum bottle at 80° C. and 95° C. respectively, and measuring the residual activities at different time intervals under the standard assay conditions.
# [6] = Oxygen sensitivity (residual activity after exposure to air); format: physicochemical; settings: for t1/2 upon exposure to the air: room temperature
# Experimental: The effect of oxygen on enzyme activity was investigated by exposing the enzyme samples in the air at room temperature and determining the residual activity after oxygen exposure. The exposure was performed in the presence or absence of DDT and SDT. The residual activities of each sample at different time intervals were tested parallelly under the standard assay conditions.
# [7] = remark: listed apart in the source
# Excerpt: Enzymes resistant to solvent inactivation are of great interest from scientific and practical points of view.
# [8] = Optimum pH of enzyme activity; format: biochemical
# Experimental: (§4) The effect of pH on the enzyme activities was determined over a range of 5.5-11.4. The buffers (100 mM) used were phosphate (pH 5.5-8.0), EPPS (8.0-9.0), glycylglycine (9.0-9.7), and CAPS (9.7-11.4). The effect of the temperature on the enzyme activity was examined at temperatures from 30 to 95° C. Enzyme thermostability was determined by incubating the enzyme in sealed serum bottles at 80° C. and 95° C., respectively. Residual activity was assayed at various time intervals under the standard assay conditions. Substrate specificity was determined using primary and secondary alcohols (50 mM), diols and polyols (50 mM), or aldehydes and ketones (6 mM) under standard assay conditions.
# All the catalytic properties of native and recombinant TgADH were determined using the in vitro enzyme assay described above. The optimal pH of ethanol-dependent oxidation of native and recombinant TgADHs was determined by testing and comparing the enzyme activity at a series of pHs. Standard enzyme assay at 80° C. were applied using a set of 100 mM buffers: HEPES (pH 6.5, 7.0, 7.5 and 8.0), EPPS (pH 8.0, 8.5, 8.8, 9.0), glycine (pH 9.0, 9.5, 10.0) and CAPS (pH 10.0, 10.5, 11.0). The optimal pH of acetaldehyde-dependent reduction of native and recombinant TgADH was measured between pH 5.5 and 9.5 using the following buffers (100 mM): citrate (pH 5.5 and 6.0), PIPES (pH 6.0, 6.5 and 7.0), HEPES (pH 7.0, 7.5 and 8.0), EPPS (pH 8.0, 8.5, and 9.0), and glycine (pH 9.0 and 9.5).
# [9] = Temperature dependence of enzyme activity; format: biochemical
# Experimental: as §4, §3
# [10] = cited from earlier work
molecule,measurement,setting,value
"C[C@H](O)[C@H](C)O [(2S,3S)-(+)-2,3-butanediol]",Apparent Vmax,T. guaymasensis ADH [1],769 U mg^−1
same,kcat,T. guaymasensis ADH [1],512 s⁻¹
nicotinamide adenine dinucleotide phosphate [NADPH],"Apparent Km for NADPH, times lower than for NADP^+",T. guaymasensis ADH [2],40 times
B1,Chiral compound synthesis preference,T. guaymasensis ADH [3],R-configured
same,Enzyme (specific) activity,[4]; 2-butanol as assay substrate,1149 U mg^−1
same,Specific activity,[4],1049 U/mg
same,Thermostability,[5],24 hr at 95 °C
same,t1/2 (thermostability),[5],70 h
same,Activity after incubation,[5]; 80° C. for 40 hours,60%
same,Activity after exposure to air (in words),[6]; exposed to air for a week,lost activity
same,t1/2 upon exposure to the air,[6],6 h
same,t1/2 upon exposure to the air,[6]; listed as T. guaymasensis ADH,about 4 hours
same,"Enzyme activity remaining, of full activity",[7],about 40%
same,Methanol concentration at which half of full activity remained,[7],about 24 % (v/v)
same,Methanol concentration up to which the enzyme was active,[7],up to 40 % (v/v)
same,Solvent tolerance,[7]; methanol,24% methanol
same,Enzyme activity retained (in words),[7]; methanol up to 5% (v/v),almost its full activity
same,"Optimal pH, acetaldehyde reduction",[8],7.5
same,"Optimal pH, ethanol oxidation",[8],10.5
same,"Optimal pH, formation of alcohols (2-butanone reduction)",[8],7.5
same,"Optimal pH, oxidation of alcohols (2-butanol)",[8],10.5
same,Optimal temperature,[9]; tested 30 to 95° C.,over 95 °C
B2,Thermostability,[10]; at 93.8° C.,60 min at
same,Solvent tolerance,[10]; isopropanol,64%
B3,Specific activity,[4],1079 U/mg and 1073 U/mg
same,Specific activity,[4]; listed as recombinant enzyme,1073 U/mg
same,t1/2 (thermostability),[5],about 26 hours
same,Enzyme activity after heat treatment of cell extract (in words),[5]; 60° C. for half an hour,no loss
same,Residual activity after incubation,[5]; 42 hours at 80° C.,more than 60%
same,t1/2 upon exposure to the air,[6],about 4 hours
same,"Optimal pH, formation of alcohols (2-butanone reduction)",[8],7.5
same,"Optimal pH, oxidation of alcohols (2-butanol)",[8],10.5
same,Highest activity in temperature dependence test,[9]; at 95° C.,1533 U/mg
